T1: recombinant cynomolgus TfR (90253-C07H, Sino Biological), biotinylated (cynomolgus monkey, UniProt Q5RDH6 89-760 (Pongo abelii entry), biotinylated with EZ-Link NHS-PEG4-Biotinylation Kit)
T1 construct: Bought protein; also called immobilized recombinant cynomolgus TfR
T1 chain: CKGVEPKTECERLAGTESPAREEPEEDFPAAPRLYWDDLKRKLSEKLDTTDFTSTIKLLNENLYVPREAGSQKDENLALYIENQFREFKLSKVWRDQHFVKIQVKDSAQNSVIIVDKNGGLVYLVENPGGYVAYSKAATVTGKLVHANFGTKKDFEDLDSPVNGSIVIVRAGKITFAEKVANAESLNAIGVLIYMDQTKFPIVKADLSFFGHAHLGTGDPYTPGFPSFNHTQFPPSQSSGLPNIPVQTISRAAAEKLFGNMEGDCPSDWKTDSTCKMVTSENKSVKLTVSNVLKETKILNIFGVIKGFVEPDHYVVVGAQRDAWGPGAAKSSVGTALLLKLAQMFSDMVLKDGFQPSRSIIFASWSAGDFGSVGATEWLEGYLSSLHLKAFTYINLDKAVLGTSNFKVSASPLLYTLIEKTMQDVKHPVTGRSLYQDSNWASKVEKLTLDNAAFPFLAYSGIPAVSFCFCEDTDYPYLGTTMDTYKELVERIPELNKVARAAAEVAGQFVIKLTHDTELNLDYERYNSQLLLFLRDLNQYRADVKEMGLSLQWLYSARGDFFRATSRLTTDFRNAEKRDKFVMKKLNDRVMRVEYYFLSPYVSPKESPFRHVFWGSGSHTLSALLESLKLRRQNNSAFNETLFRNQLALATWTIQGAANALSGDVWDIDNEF


Key:
[1] = biological target: T1, recombinant cynomolgus TfR (90253-C07H, …); test: SPR (Biacore T200), biotinylated cynomolgus TfR captured on an SA chip as ligand, VHH as analyte, single cycle kinetics, 1:1 binding model
Text: (§1) Phage libraries generated after 4 biweekly immunizations of two different camelids, underwent two rounds of pannings on CHO cell lines overexpressing either cynomolgus TfR in the first round or human TfR in the second round. Output libraries were screened with flow cytometry to find binders to human TfR overexpressing cells (FIG. 1A). […] Binding kinetics to recombinant human and cynomolgus TfR were further characterized with Surface Plasmon Resonance (SPR).
(§2) Surface Plasmon Resonance (SPR) was used to measure the interaction between VHHs and human or cynomolgus TfR receptor. Human TfR (2474-TR, R&D Systems) and cynomolgus TfR (90253-C07H, Sino Biological) were biotinylated with the EZ-Link NHS-PEG4-Biotinylation Kit (ThermoFischer Scientific) according to the manufacturer instructions. The binding experiments were performed at 25° C. on a Biacore T200 instrument (Cytiva, Uppsala, Sweden) in HBS-EP+ buffer (10 mM HEPES, 150 mM NaCl, 3 mM EDTA and 0.05% v/v Surfactant P20). Biotinylated human TfR and cynomolgus TfR were captured on a SA sensor chip (Cytiva) at a density of around 250 RU. Increasing concentrations of VHHs were sequentially injected in one single cycle at a flow rate of 30 μl/min. The dissociation was monitored for 20 min. […] A reference flow was used as a control for non-specific binding and refractive index changes. Several buffer blanks were used for double referencing. Binding affinities (KD) and kinetic rate constants (kₒₙ, koff) were derived after fitting the experimental data to the 1:1 binding model with the Biacore T200 Evaluation Software 3.1 using the single cycle kinetic procedure. Each interaction was repeated a least three times.

[2] = biological target: T2, human TfR overexpressed on CHO cells (human, UniProt P02786 1-760); test: flow cytometry on CHO cells overexpressing human TfR (CHO-hTfR), VHH detected with anti-FLAG-iFluor647; median Flag-i647 intensity in total GFP cells
T2 construct: construct is TfR followed by an HA tag and IRES-GFP; also called hTfR; human transferrin receptor
Procedure: Output libraries were screened with flow cytometry to find binders to human TfR overexpressing cells (FIG. 1A). […] Binding kinetics to recombinant human and cynomolgus TfR were further characterized with Surface Plasmon Resonance (SPR).
Periplasmic extracts diluted 1:10 in PBS 2% FBS, or a dilution range of different VHH or bispecific antibody concentrations prepared in PBS 2% FBS, were incubated with 0.1 million CHO cells overexpressing either the human, cynomolgus or mouse TfR for 30 min at 4° C. As control for background binding, periplasmic extracts, VHHs or bispecific antibodies were also incubated with 0.1 million CHO cells overexpressing GFP. Binding of VHHs was next resolved by a second step 30 min incubation at 4° C. with an anti-FLAG-iFluor647 antibody (A01811, Genscript) diluted 1:500 for screening and 1:250 for validation assays, or with anti-human IgG Fc-Alexa Fluor647 antibody (410714, BioLegend) diluted 1:200. […] Cells were fixed with 4% paraformaldehyde before being analyzed. Flp-In™-CHO™ cells used as unstained control and single stain controls were used to determine the cut-off point between background fluorescence and positive populations. […] The data was acquired with an Attune Nxt flow cytometer (Invitrogen) and analyzed by FCS Express 7 Research Edition.

[3] = biological target: T3, recombinant human TfR (2474-TR, R&D Systems), biotinylated (human, UniProt P02786 89-760, biotinylated with EZ-Link NHS-PEG4-Biotinylation Kit); test: SPR (Biacore T200), biotinylated human TfR captured on SA chip, VHH as analyte, single cycle kinetics
T3 construct: Bought protein; also called immobilized recombinant human TfR; biotinylated human TfR
Text: as §1
as §2, with “Binding affinities (KD) and kinetic rate constants (kₒₙ, koff) were derived after fitting the experimental data to the 1:1 binding model with the Biacore T200 Evaluation Software 3.1 using the single cycle kinetic procedure. Each interaction was repeated a least three times.” left out

koff [1] [s⁻¹]	kon [1] [M⁻¹ s⁻¹]	EC50 (read off the curve) [2] [nM]	Kd [3] [nM]	Binder
0.00942	149000	~50	1180	BBB00515 (VHH, Lead VHH expressed in E. coli TG1 and purified by IMAC; detected with anti-FLAG antibody in flow cytometry; also called BBB00515 VHH; not shown: C-terminal 3xFlag/6xHis tag from expression vector pBDS119) VHH: QVQLQESGGGLVQAGGSLRLSCAASGSIFSINAMGWYRQAPGKQRELVAVITSGGSTIYADSVKGRFTISRDNAENTVYLQMNSLKPEDTAVYYCNAHVGLKVPTIQELSLGFGSWGQGTQVTVSS
0.0118	115000	~50	207	BBB00533 (VHH, Lead VHH expressed in E. coli TG1 and purified by IMAC; detected with anti-FLAG antibody in flow cytometry; also called BBB00533 VHH; not shown: C-terminal 3xFlag/6xHis tag from expression vector pBDS119) VHH: QVQLQESGGGSVQPGGSLRLSCTASGRTFNYAMGWFRQAPGKNREFVATIDWKDGSSYYLDSVRGRFTIERDDAKNTVYLQMNSLKPEDAAVYTCAVGDGDYCSTYTCAAEVEYDYWGQGTQVTVSS
